The values below are quoted from earlier work in publication PMC11133458.

A word on the pKa: it is the pH at which an ionisable group is half protonated.

In the data set the target is Glu14 (UniProt position 14, GAILAEVIGTT). The conditions noted are these: TPP-bound EmrE (Glu14 of monomer A deprotonated).

For the substance “EmrE (multidrug efflux transporter, small multidrug resistance family) (Escherichia coli)”, the pKa is 6.8.
